Reference: PMC10730914, “Multiple independent losses of the biosynthetic pathway for two tropane alkaloids in the Solanaceae family” (Nature Communications, 2023)

Key:
Conditions in all cases: 200 µM NADPH, 0.1 M potassium phosphate pH 6.4, 30 °C
[1] = system: CN1[C@@H]2CC[C@H]1CC(=O)C2; experiment: purified protein; type: biochemical, Solanum tuberosum
BaTRI = system: T1, BaTRI; experiment: NADPH consumption at […] nm, Michaelis-Menten fit; type: biochemical, Brugmansia arborea
T1 construct: gene TRI

McTRI = system: T2, McTRI; experiment: NADPH consumption at […] nm, Michaelis-Menten fit; type: biochemical, Mandragora caulescens
T2 construct: gene TRI

LcTRI = system: T3, LcTRI; experiment: NADPH consumption at […] nm, Michaelis-Menten fit; type: biochemical, Lycium chinense
T3 construct: gene TRI

StTRI (Solanum tuberosum; A101V/L159V) gave a Km [1] of 280 ± 70 µM and a kcat [1] of 3.31 ± 0.20 s⁻¹.

`CN1[C@@H]2CC[C@H]1CC(=O)C2` [compound 5, tropinone] gave a Km (BaTRI) of 310 ± 30 µM, a Km (McTRI) of 90 ± 10 µM and a Km (LcTRI) of 2910 ± 140 µM.

In the case of “StTRI (Solanum tuberosum; A101V/A193G/L159V/V147L)”, the Km [1] is reported as 110 ± 10 µM.
